Among the data in paper PMC7126681 are stoichiometry N values, retold here.

For test [1], the target named is His-tagged griffithsin (SeMet-labeled, E. coli-expressed) (Griffithsia sp.) (UniProt P84801). Briefly: crystal structure.
Test [2] addresses plant-expressed griffithsin (Griffithsia sp.) (UniProt P84801). As to the kind of experiment: crystal structure.

On to “His-tagged griffithsin (SeMet-labeled, E. coli-expressed) (from UniProt P84801 1-121) (natural protein)”, for which the stoichiometry N (usually the number of molecules, sites or subunits per partner or assembly) in test [1] is 2.

As for “plant-expressed griffithsin (from UniProt P84801 1-121) (natural protein)”, the stoichiometry N in test [2] worked out at 2.
